Measured values from US20260217768A1, “NANOPARTICLE-NHE3 PEPTIDE TO TREAT DIARRHEA” (The Johns Hopkins University, priority 2023, published 2026).

Legend:
[1] = target: NHERF2 binding to NHE3 C-terminal peptides (Homo sapiens, UniProt Q15599); assay: NHE3 peptide-NHERF2 overlay assay; conditions: peptide at 5 times the concentration of NHERF2 and MBP-NHE3 fusion peptides, n=5
Experimental: Two NHE3 C-terminal peptides containing the N3SP-1 sequence were separated on SDS-Page gradient gels and purified NHERF binding determined. Equal concentrations of NHE3 peptides and NHERF2 were used. Prior to NHERF2 addition, the blots were overlayed with 5× the concentration of N3SP-1Δ7 vs CP2.
Binding of purified full-length GST-NHERF2 to two NHE3 C-terminal peptides that contain the N3SP-1 sequence was determined in the presence of equal concentrations of CP-2 compared to N3SP-1Δ7. CP-2 and N3SP-1Δ7 peptides were used at 5 times the concentration of the NHERF2 fusion protein and the MBP-NHE3 fusion peptides.

adenylate cyclase-cAMP = assay: cAMP assay in human enteroid monolayers exposed to FSK; format: cell-based; conditions: nanoparticles with 250-nM peptide, FSK (10 μM) 45 min, CP-2 vs N3SP-1Δ7
Experimental: Human jejunal enteroid monolayers on Transwell inserts (Corning Cat #: 3470) were differentiated for 5 days and then in serum-free media were exposed apically to nanoparticles containing either 250-nM CP-2 or N3SP-1Δ7. The peptide and polymer in PBS were prepared just before use, allowed to combine for 10 min before being added to the apical surface of enteroid monolayers at room temperature. Monolayers were incubated for 4 hours at 37° C., 5% CO2 incubator before the nanoparticles were removed, then monolayers were washed 3 times with cold PBS and changed to differentiation media and moved to a 37° C. incubator. Differentiation media was removed 24 hours later and washed twice with CMGF-media (Advanced DMEM/F12 with 10-mM Hepes, 10-mM GlutaMax, and 1000 Units/mL Penn/Strep). Next, 100 μL of CMGF-media containing 10-mM Theophylline, 50-μM Cilostazol and 50-μM Rolipram was added to the apical and basolateral surfaces followed by exposure to FSK (10 μM) at 37° C., 5% CO2, for 45 min before apical and basolateral media were collected and cells were lysed in 200-μL 0.1 M HCl for cAMP analysis. CAMP in apical, basolateral, and cells was determined using nonradioactive, CAMP-ELISA kits from ENZO Life Sciences (Loerrach, German), using the acetylation protocol in which the yellow-colored product is inversely proportional to the amount of CAMP present in the sample.

Chain of NHERF2 binding to NHE3 C-terminal peptides (Q15599 whole entry, the tested form may be a part): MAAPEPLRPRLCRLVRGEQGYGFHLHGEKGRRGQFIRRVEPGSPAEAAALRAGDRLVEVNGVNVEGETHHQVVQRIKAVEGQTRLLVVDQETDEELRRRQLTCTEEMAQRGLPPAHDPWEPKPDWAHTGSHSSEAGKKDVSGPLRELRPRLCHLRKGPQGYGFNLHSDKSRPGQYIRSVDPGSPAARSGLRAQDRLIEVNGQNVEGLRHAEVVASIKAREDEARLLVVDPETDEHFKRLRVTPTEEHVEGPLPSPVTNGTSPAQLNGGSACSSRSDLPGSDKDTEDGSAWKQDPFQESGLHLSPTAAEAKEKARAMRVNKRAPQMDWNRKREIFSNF

## N3SP-1 lacking first seven N-terminal amino acids: RPSTVEASVSYLLRESASAVCLDMQSLEQRR [Peptide N3SP-1Δ7]
[1]
  NHERF2 binding to NHE3 C-terminal peptides compared to control peptide CP-2: preferentially reduces NHERF2 binding
[1]; listed as N3SP-147
  NHERF2 binding to NHE3 C-terminal peptides compared to control peptide CP-2: significantly reduced NHERF2 binding
Adenylate cyclase-cAMP
  FSK-increased intracellular cAMP: similar
